Results on one molecule are retold here after patent US20220332804A1 (CSL INNOVATION, published 2022).

Common to all, as to assay: SPR, antibody captured, C2 as analyte;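 also: biacore SPR at 37 °C, anti-C2 mAbs captured via goat anti-human IgG on CM5 chips, double-referenced sensorgrams fit to a 1:1 kinetic or steady-state model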
On the technique in general: Surface plasmon resonance follows binding to a sensor surface in real time, without labels.

For test [1], the target named is T1, human C2 N424A (human, UniProt P06681 21-752).
T1 sequence: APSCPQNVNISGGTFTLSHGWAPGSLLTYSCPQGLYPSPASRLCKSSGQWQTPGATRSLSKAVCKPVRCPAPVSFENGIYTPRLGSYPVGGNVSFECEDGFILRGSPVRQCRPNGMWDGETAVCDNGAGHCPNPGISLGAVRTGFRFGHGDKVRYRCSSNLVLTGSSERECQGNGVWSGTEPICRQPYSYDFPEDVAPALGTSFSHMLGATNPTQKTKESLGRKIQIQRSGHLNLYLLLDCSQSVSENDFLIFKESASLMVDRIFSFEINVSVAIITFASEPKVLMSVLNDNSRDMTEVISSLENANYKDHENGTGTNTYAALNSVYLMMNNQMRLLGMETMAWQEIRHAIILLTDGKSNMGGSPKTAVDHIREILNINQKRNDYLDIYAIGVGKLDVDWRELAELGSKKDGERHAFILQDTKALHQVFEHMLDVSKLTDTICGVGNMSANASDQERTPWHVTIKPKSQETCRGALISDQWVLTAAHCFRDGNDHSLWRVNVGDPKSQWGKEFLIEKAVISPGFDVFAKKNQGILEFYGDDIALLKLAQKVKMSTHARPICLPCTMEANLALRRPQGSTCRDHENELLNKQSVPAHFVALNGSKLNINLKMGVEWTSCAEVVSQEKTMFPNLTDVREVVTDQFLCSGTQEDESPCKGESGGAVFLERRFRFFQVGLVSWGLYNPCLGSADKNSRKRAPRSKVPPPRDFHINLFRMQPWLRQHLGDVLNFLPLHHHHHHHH

In test [2] the target is T2, human C2 P718A (human, UniProt P06681 21-752).
T2 sequence: T1 sequence with A404N, P698A

Test [3] addresses T3, human C2 D404A (human, UniProt P06681 21-752).
T3 sequence: T1 sequence with D384A, A404N

Test [4] has as its target T4, human C2 D441A (human, UniProt P06681 21-752).
T4 sequence: T1 sequence with A404N, D421A

Changes are numbered by the printed parent chain.

B1: RF16-226 (antibody, human IgG4 S228P, lambda)
heavy: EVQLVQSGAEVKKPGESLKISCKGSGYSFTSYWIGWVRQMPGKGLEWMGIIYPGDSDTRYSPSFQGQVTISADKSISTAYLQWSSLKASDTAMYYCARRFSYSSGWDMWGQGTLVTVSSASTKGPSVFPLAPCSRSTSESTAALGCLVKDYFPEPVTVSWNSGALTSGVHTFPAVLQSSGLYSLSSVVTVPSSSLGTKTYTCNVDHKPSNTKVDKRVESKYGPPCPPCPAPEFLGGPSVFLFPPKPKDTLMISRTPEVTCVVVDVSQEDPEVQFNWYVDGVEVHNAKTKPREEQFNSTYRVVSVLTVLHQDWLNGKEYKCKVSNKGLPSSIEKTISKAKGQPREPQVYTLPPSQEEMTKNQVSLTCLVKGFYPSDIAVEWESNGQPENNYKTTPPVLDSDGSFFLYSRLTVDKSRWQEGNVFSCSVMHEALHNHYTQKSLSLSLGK
light: SYELTQPPSVSVSPGQTARITCSGDALTSKYVAWYQQKSGLAPLLVIYEDTRRPSGIPAKFSGSSSGSVATLTISGAHGDDEADYYCYSTDASGHQRVFGGGTKLTVLSQPKAAPSVTLFPPSSEELQANKATLVCLISDFYPGAVTVAWKADGSPVKAGVETTKPSKQSNNKYAASSYLSLTPEQWKSHRSYSCQVTHEGSTVEKTVAPTECS
notes: pH-dependent anti-C2 antibody from a phage display library; also called WT
Consider B1, for which the Kd (commonly the equilibrium constant for the complex coming apart) amounted to 3.2 nM in test [1], 15.2 nM in test [2], 12.8 nM in test [3] and 63.9 nM in test [4].
